Consider 7 molecules from patent publication US20140161725A1 (H LEE MOFFITT CANCER CENTER AND RESEARCH INSTITUTE, published 2014).

Where no end group is shown, it is not given here. The star is where a group is joined. Dhc(Pam)2 = S-[2,3-bis(palmitoyl)oxy-(R)-propyl]-cysteine, CCCCCCCCCCCCCCCC(=O)OC[C@H](CSC[C@H](N)C(=O)*)OC(=O)CCCCCCCCCCCCCCC; PEGO = not defined here

In experiment [1] the target is human carbonic anhydrase 9 (CAIX) (human) (UniProt Q16790). As to the kind of experiment: in vivo fluorescence imaging of CAIX positive MDA-mb-231 tumour 24 h after injection; competitor unlabeled CAIX mAb.
Experiment [2] has as its target T1, human Toll-like receptor 2 (TLR2) (human, UniProt O60603 21-784). As to the kind of experiment: Eu TRF competition binding on HEK-293/hTLR2 cells; competitor 90 nM compound 11.
Experiment [3] concerns the target T1, human Toll-like receptor 2 (TLR2). As to the kind of experiment: Eu TRF competition binding; competitor compound 11.
Experiment [4] shares this target. As to the kind of experiment: cell-based or functional assay.
Experiment [5] has the same target. As to the kind of experiment: in cyto competition binding assay.
For experiment [6] the target is unchanged. As to the kind of experiment: Eu TRF competition binding on SU.86.86 cells; competitor 90 nM compound 11.
For experiment [7] the target is unchanged. As to the kind of experiment: Eu TRF saturation binding on Capan-I cells; non-specific binding with 1 µM Pam2CSK4.
Experiment [8] has the same target. As to the kind of experiment: Eu TRF saturation binding on HEK-293/hTLR2 cells.
Experiment [9] shares this target. As to the kind of experiment: Eu TRF saturation binding on SU.86.86 cells; non-specific binding with 1 µM Pam2CSK4.
Experiment [10] shares this target. As to the kind of experiment: Eu TRF saturation binding on HEK-293/hTLR2 cells; non-specific binding with 1 µM Pam2CSK4.
Experiment [11] has the same target. As to the kind of experiment: Eu TRF saturation binding on Capan-I cells.
The target is the same in experiment [12]. As to the kind of experiment: Eu TRF saturation binding on TLR2 expressing cells.
The target is the same in experiment [13]. As to the kind of experiment: Eu TRF saturation binding on SU.86.86 cells.
Experiment [14] shares this target. As to the kind of experiment: time-resolved fluorescence saturation binding assay.
The target is the same in experiment [15]. As to the kind of experiment: time-resolved fluorescence competitive binding assay.
Experiment [16] has the same target. As to the kind of experiment: in vivo fluorescence imaging of TLR2 expressing SU.86.86 xenografts 24 h post-injection; competitor 20-fold excess Pam2CSK4.

T1 sequence (O60603 21-784): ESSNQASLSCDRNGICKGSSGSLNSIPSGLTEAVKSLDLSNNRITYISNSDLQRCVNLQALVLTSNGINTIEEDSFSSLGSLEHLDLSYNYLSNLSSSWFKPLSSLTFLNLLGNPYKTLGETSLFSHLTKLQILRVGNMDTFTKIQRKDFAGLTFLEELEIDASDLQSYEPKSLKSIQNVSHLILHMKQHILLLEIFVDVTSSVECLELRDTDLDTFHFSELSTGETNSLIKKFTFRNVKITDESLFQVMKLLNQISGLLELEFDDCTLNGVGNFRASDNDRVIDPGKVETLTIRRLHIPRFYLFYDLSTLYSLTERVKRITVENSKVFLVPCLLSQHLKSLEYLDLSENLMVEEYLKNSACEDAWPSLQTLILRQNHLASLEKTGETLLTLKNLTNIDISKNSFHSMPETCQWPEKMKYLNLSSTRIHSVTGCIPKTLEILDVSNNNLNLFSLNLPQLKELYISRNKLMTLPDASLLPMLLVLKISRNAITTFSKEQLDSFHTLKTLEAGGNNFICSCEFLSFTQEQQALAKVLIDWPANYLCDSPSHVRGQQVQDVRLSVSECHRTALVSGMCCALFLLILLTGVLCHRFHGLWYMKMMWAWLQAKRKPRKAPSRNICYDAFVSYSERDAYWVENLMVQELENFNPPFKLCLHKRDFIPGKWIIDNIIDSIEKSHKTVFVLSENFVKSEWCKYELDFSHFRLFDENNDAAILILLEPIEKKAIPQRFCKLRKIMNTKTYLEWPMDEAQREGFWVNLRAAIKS

“CA9Ab-680 (anti-human CAIX monoclonal antibody, Clone 303123, R&D systems, conjugated to VivoTag-S 680)” registered a fold decrease of probe fluorescence in the tumour after blocking with unlabeled CAIX mAb in [1] of 1.7 times.

In the case of “Compound 10: Ac-PEGO-Cys(S-[2,3-bis(palmitoyl)oxy-(R)-propyl])-Gly-DSer-PEGO-NH2 (peptide)”, the inhibition constant (Ki) is 25 nM in experiment [2], under 100 nM in [3], 24 nM in experiment [5] and 91 nM in [6]. Besides, the fold of enhancement of luminescence at 1 µg/mL vs SAA at 10 µg/mL in [4] was determined as 5.2 fold. The fold of enhancement of luminescence vs SAA at 1 µg/mL in experiment [4] was determined as 14 fold.

Consider “Compound 11: Eu-DTPA-PEGO-Cys(S-[2,3-bis(palmitoyl)oxy-(R)-propyl])-Gly-DSer-PEGO-NH2 (peptide)”, for which the Kd in experiment [7] is 78 nM; in experiment [9] it was 74 nM; in [10], 34 nM; in experiment [12] it was under 100 nM; in experiment [14] it was 30 nM. In addition, the Bmax in experiment [8] is 114000 AFU; in experiment [11] it was 951000 AFU; in experiment [13], 270000 AFU.

Regarding “Compound 12: Mpr-PEGO-Cys(S-[2,3-bis(palmitoyl)oxy-(R)-propyl])-Gly-DSer-PEGO-NH2 (peptide)”, the figures for the Ki in experiment [3] and in experiment [6] were under 100 nM and 25 nM, respectively.

As to “Compound 13: IRDye800CW-Mpr-PEGO-Cys(S-[2,3-bis(palmitoyl)oxy-(R)-propyl])-Gly-DSer-PEGO-NH2 (peptide)”, the Ki in [2] was 11 nM; in experiment [3], under 100 nM; in experiment [15], 10 nM; in experiment [6], 67 nM. Also, the unblocked/blocked tumor fluorescence (fold) in [16] was determined as 1.94 fold.

B1: Compound 9: Ac-PEGO-Cys(S-[2,3-bis(palmitoyl)oxy-(R)-propyl])-Gly-Ser-Gln-Asn-Leu-Ala-Ser-Leu-Glu-Glu-NH2 (peptide)
peptide: {Ac-PEGO-Dhc(Pam)2}-GSQNLASLEE-NH2
modifications: reading uncertain
As to B1, in experiment [4], the “fold of enhancement of luminescence at 1 µg/mL vs SAA at 10 µg/mL” value was 4.8 fold and the “fold of enhancement of luminescence vs SAA at 1 µg/mL” value is 13 fold.

B2: Compound 8: Ac-PEGO-Cys(S-[2,3-bis(palmitoyl)oxy-(R)-propyl])-Ser-Arg-Phe-Asp-Glu-Asp-Asp-Leu-Glu-NH2 (peptide)
peptide: SRFDEDDLE-NH2
modifications: not fully specified (some residues, N-terminus)
As to B2, in experiment [4], the “fold of enhancement of luminescence at 1 µg/mL vs SAA at 10 µg/mL” value was 4.2 fold and the “fold of enhancement of luminescence vs SAA at 1 µg/mL” value was 11 fold.
